Patent US20260116996A1 (REGENTS OF THE UNIVERSITY OF MINNESOTA, published 2026)

T1: human serpinB5 (human, UniProt P36952 1-375)
T1 construct: Luminex antigen captured from a 293 cell lysate; not shown: V5-His tag of the pcDNA3.1 Directional V5-His-TOPO vector
T1 sequence (looked up): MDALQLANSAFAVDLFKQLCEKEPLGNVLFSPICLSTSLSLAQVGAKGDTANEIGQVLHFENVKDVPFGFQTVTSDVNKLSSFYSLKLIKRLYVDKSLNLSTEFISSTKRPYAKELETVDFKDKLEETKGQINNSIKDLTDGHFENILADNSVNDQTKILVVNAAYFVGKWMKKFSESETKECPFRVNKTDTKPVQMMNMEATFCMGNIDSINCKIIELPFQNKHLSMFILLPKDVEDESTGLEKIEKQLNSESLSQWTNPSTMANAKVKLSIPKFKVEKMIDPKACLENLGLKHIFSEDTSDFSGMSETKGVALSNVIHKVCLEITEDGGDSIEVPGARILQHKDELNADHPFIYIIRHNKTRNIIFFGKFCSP

T2: human serpinB8 (human, UniProt P50452 1-374)
T2 construct: Luminex antigen captured from a 293 cell lysate; not shown: V5-His tag of the pcDNA3.1 Directional V5-His-TOPO vector
T2 sequence (looked up): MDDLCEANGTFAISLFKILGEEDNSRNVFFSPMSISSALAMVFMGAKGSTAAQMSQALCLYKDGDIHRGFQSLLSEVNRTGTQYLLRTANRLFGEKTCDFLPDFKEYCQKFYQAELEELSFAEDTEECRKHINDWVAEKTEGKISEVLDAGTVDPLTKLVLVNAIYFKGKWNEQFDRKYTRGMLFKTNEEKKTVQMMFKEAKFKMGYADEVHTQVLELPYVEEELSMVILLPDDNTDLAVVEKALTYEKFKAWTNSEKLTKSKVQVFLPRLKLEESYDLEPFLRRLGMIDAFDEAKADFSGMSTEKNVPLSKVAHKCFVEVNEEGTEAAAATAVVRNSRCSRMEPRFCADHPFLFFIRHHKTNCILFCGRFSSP

B1: recombinant fully human anti-serpinB13 antibody Clone 2 (antibody, human IgG1, kappa, V domains shown)
VH: QMQLVQSGGGVVRPGGSLRLSCAASGFTFDDYGMSWVRQAPGKGLEWVSGINWNGGSTGYADSVKGRFTISRDNAKNSLYLQMNSLRAEDTALYYCARESSMTTVTTYLLREVGVGLDFDYWGQGTLVTVSS
VL: ETTLTQSPGTLSLSPGERATLSCRASQTVSGSYLAWYQQKPGQPPRLLIYGASSRATGIPDRFSGSGSGTDFTLTISRLEPEDFAVYYCQDYGSSRTFGQGTKVELKR
notes: also called mAb2; CLONE2-H(m1) / CLONE2-L(m1)
B2: recombinant fully human anti-serpinB13 antibody Clone 3 (antibody, human IgG1, kappa, V domains shown)
VH: QVQLQQWGAGLLKPSETLSLTCAVYGGSFSGYYWSWIRQPPGKGLEWIGEINHSGSTNYNPSLKSRVTISVDTSKNQFSLKLSSVTAADTAVYYCARRYCSGGSCYLVGTGSELDYWGQGTLVTVSS
VL: DIQMTQSPSTLSASVGDRVTITCRASQSISSWLAWYQQKPGKAPKLLIYKASSLEIGVPSRFSGSGYGTEFTLTISSLQPDDFATYYCLQYSTHSTFGQGTRVEIKR
notes: also called mAb3; CLONE3-H(m1) / CLONE3-L(m1)
B3: recombinant fully human anti-serpinB13 antibody Clone 1 (antibody, human IgG1, kappa, V domains shown)
VH: QVQLQESGGGVVQPGRSLRLSCAASGFTFSSYGMHWVRQAPGKGLEWVAVISYDGSNKYYADSVKGRFTISRDNSKNTLYLQMNSLRAEDTAVYYCARDLGAVIAVAGTSTPYNWFDPWGQGTLVTVSS
VL: DVVMTQSPLSLPVTPGEPASISCRSRQSLLHSNGHNYLGWYLQKPGQSPQLLIYLASIRASGIPDRFSGSGSGTDFTLKISRVEAEDVGVYYCMQALQTPYTFGQGTKLEIKR
notes: also called mAb1; mAbs1

Target: T1, human serpinB5
Test: Luminex bead assay, beads coated with human serpinB5, background (Gfp and Scgn beads) subtracted
Procedure: (§1) The latter was determined as the average antibody binding to Luminex beads coated with Gfp and Scgn control antigens. Similar data were obtained for antigen binding of Fab fragments of these antibodies (data not shown).
(§2) Luminex assay. Luminex-based technology was used to measure serpinB13 AA in human samples. Initially, the Luminex beads were precoated with serpinB13, Gfp and Scgn, using precleared lysates of 293 cells that had been transfected with individual cDNAs. Biotinylated mouse anti-human K and 2 chain mAbs (BD Biosciences) (dilution 1:300) and streptavidin (Invitrogen) (dilution 1:200) were used as secondary reagents to measure human serum binding activity to individual antigens. The data were expressed as fluorescence intensity (F.I.) due to serum binding activity in the presence of beads precoated with serpinB13 and after subtracting the average F.I. due to serum binding activity in the presence of beads precoated with control proteins, Gfp and Scgn (e.g. F.I.^B13-[F.I.^GFP+F.I.^Segn]/2). The samples were evaluated based on the level of F.I. and the degree of inhibition of binding to serpin-B13 coated beads with soluble serpinB13 (2.5 μg/mL), compared with the bovine serum albumin (BSA). […] All samples were run blind on three independent occasions. Subjects with serum samples that produced a positive results three times were considered positive. Subjects with serum samples that produced a negative result on at least one occasion were considered negative.
(§3) To determine whether anti-serpin activity is specific, binding of three human recombinant antibodies to serpinB13 was examined for potential cross-reactivity with other clade B serpins. Binding to the beads conjugated with Gfp and Scgn was used to subtract the background and the assay was developed using the same reagents as those described above for measuring serpinB13 AA in serum samples.

Binding result, no binding (tested: 1.0 µg/mL):
B1
B2
B3

Target: T2, human serpinB8
Test: Luminex bead assay, beads coated with human serpinB8, background (Gfp and Scgn beads) subtracted
Procedure: as §1, §2, §3

Binding result, no binding (tested: 1.0 µg/mL):
B1
B2
B3
